# Source: US20220348635A1, “COMPOSITIONS AND METHODS FOR NEUROLOGICAL DISEASES” (Coda Biotherapeutics, Inc., priority 2019, published 2022)
# Where a chain is given by its changes, count along the chain named. Names and notes keep the numbering of the source.
# B1: L131S, S172D in SEQ ID NO: 33: engineered chimeric α7-nAChR/GlyRα1 LGIC receptor: SEQ ID NO: 33 with substitutions L131S and S172D (protein)
# chain: MRCSPGGVWLALAASLLHVSLQGEFQRKLYKELVKNYNPLERPVANDSQPLTVYFSLSLLQIMDVDEKNQVLTTNIWLQMSWTDHYLQWNVSEYPGVKTVRFPDGQIWKPDILLYNSADERFDATFHTNVSVNSSGHCQYLPPGIFKSSCPMDLKNFPMDVQTCKLKFGSWDYGGWSLDLQMQEADISGYIPNGEWDLVGIPGKRSERFYECCKEPYPDVTFTVTMRRRMGYYLIQMYIPSLLIVILSWISFWINMDAAPARVGLGITTVLTMTTQSSGSRASLPKVSYVKAIDIWMAVCLLFVFSALLEYAAVNFVSRQHKELLRFRRKRRHHKSPMLNLFQEDEAGEGRFNFSAYGMGPACLQAKDGISVKGANNSNTTNPPPAPSKSPEEMRKLFIQRAKKIDKISRIGFPMAFLIFNMFYWIIYKIVRREDVHNQ
# modifications: synthetic sequence of chimeric LGIC
# B2: L131T, S172D in SEQ ID NO: 33: engineered chimeric α7-nAChR/GlyRα1 LGIC receptor: SEQ ID NO: 33 with substitutions L131T and S172D (protein)
# chain: B1 chain with S131T
# modifications: synthetic sequence of chimeric LGIC
# B3: Y115E in SEQ ID NO: 33: SEQ ID NO: 33 chimeric receptor with single substitution Y115E (protein)
# chain: B1 chain with Y115E, S131L, D172S
# modifications: synthetic sequence of chimeric LGIC
# B4: Y115D in SEQ ID NO: 33: SEQ ID NO: 33 chimeric receptor with single substitution Y115D (protein)
# chain: B1 chain with Y115D, S131L, D172S
# modifications: synthetic sequence of chimeric LGIC
# What was measured:
# Format in all cases: cell-based
# [1] = YFP quench plate reader assay, response to ABT-126; details: LX293T YFP reporter cells; for percent quench of YFP fluorescence, 50 nM abt: 50 nM ABT-126; for percent quench of YFP fluorescence, 100 nM abt: 100 nM ABT-126; for percent quench of YFP fluorescence, 300 nM abt: 300 nM ABT-126; for percent quench of YFP fluorescence, 1 uM abt: 1 uM ABT-126
# From the text: (§1) FIGS. 1A-FIG. 1G show the heat maps of the percent quench of YFP fluorescence in the mutants of the engineered chimeric receptor SEQ ID NO:33 that comprise the indicated double amino acid substitutions following stimulation by various doses of either acetylcholine or the indicated non-native ligand. Ligand doses are written across the top of each chart. Numbers in the boxes indicate the absolute amount of quench observed. Dark blue=80% maximal quench of YFP reporter. Light blue=quench of 30-80%. White=10-30%. Orange=0-10% quench. Negative values represent non-responders that have a negative quench due to a stimulation artifact. SEQ ID NO:29 is a non-responding chimera used as a negative control. Abbreviations for non-native ligand names: abt: ABT-126; ach: acetylcholine; apn: APN-1125; azd: AZD-0328; brd: TC-5619; fac: RG3487; tc6: TC-6987.
# (§2) Tables 2-8 below lists percent quench of YFP fluorescence following stimulation of the indicated engineered receptor by various doses of either acetylcholine or the non-native ligand.
# (§3) To screen these mutant LGICs for those having novel response profiles to ligands, an anion reporter assay was developed to assess the function of channels in a high throughput format. In this assay, cells expressing a YFP reporter whose fluorescence is quenched in the presence of anion are transfected with DNA encoding the channel of interest. Upon exposure to ligand, channels that are activated will flux anion, resulting in a dose-dependent quench of the YFP that can be detected on a plate reader.
# (§4) Lenti-X 293T cells (LX293T, Clontech) were maintained in DMEM containing 10% FBS and 1% penicillin/streptomycin (Invitrogen). […] Two days before assay, cells were split at a density of 20,000 cells/well in a 96-well tissue culture plate coated with poly-d lysine (Thermo Scientific). The next day, the cells were transiently transfected with 0.1 μg of DNA per well using standard Fugene protocol (Promega). On the day of assay, cells were washed 2 times in 1× extracellular solution (1×ECS: 140 mM NaCl, 5 mM KCl, 1 mM MgCl2, 2 mM CaCl2, 10 mM HEPES, 10 mM glucose, pH 7.2, mOsms 300). After the last wash, 100 μL of 1×ECS was added to the wells and the plate was incubated at 37° C. for 30 min. While incubating the plate, the drugs were diluted to a 2× concentration in 1×ECS-NaI (same components as 1×ECS except the 140 mM NaCl was replaced by 140 mM NaI). The plates were then read on a Flexstation3 (Molecular Devices). Each well, 8 wells at a time, of the plate is read for 2 min using a Flexstation3 (Molecular Devices) as follows: 1) a baseline YFP fluorescence is read for 17 sec, 2) 100 μL of ligand is added, and 3) the changes in YFP fluorescence are then measured every 1.3 sec for the remaining time.
# (§5) FIG. 1 provides heat maps of the percent quench of YFP fluorescence following stimulation by various doses of either acetylcholine or the non-native ligand as indicated in the Figure. A positive fluorescence signal, as indicated by blue shaded cells, indicate that the engineered receptor is activated by the non-native ligand at that concentration. […] Table 12 lists the EC50 values for the indicated double mutants to acetylcholine (Ach) and TC-5619 as determined from the YFP fluorescence plate reader experiment.
# [2] = YFP quench plate reader assay, response to acetylcholine; details: LX293T YFP reporter cells; for percent quench of YFP fluorescence, 10 uM ach: 10 uM acetylcholine; for percent quench of YFP fluorescence, 100 uM ach: 100 uM acetylcholine; for percent quench of YFP fluorescence, 1 mM ach: 1 mM acetylcholine; for percent quench of YFP fluorescence, 3 mM ach: 3 mM acetylcholine
# From the text: as §1, §2, §3, §4, §5
# [3] = YFP quench plate reader assay, response to APN-1125; details: LX293T YFP reporter cells; for percent quench of YFP fluorescence, 100 nM apn: 100 nM APN-1125; for percent quench of YFP fluorescence, 1 uM apn: 1 uM APN-1125; for percent quench of YFP fluorescence, 30 uM apn: 30 uM APN-1125
# From the text: as §1, §2, §3, §4, §5
# [4] = YFP quench plate reader assay, response to AZD-0328; details: LX293T YFP reporter cells; for percent quench of YFP fluorescence, 100 nM azd: 100 nM AZD-0328; for percent quench of YFP fluorescence, 300 nM azd: 300 nM AZD-0328; for percent quench of YFP fluorescence, 30 uM azd: 30 uM AZD-0328
# From the text: as §1, §2, §3, §4, §5
# [5] = YFP quench plate reader assay, response to TC-5619; details: LX293T YFP reporter cells
# From the text: as §1, §2, §3, §4, §5
# [6] = YFP quench plate reader assay, response to RG3487; details: LX293T YFP reporter cells; for percent quench of YFP fluorescence, 30 nM fac: 30 nM RG3487; for percent quench of YFP fluorescence, 300 nM fac: 300 nM RG3487; for percent quench of YFP fluorescence, 30 uM fac: 30 uM RG3487
# From the text: as §1, §2, §3, §4, §5
# [7] = YFP quench plate reader assay, response to TC-6987; details: LX293T YFP reporter cells; for percent quench of YFP fluorescence, 1 uM tc6: 1 uM TC-6987; for percent quench of YFP fluorescence, 10 uM tc6: 10 uM TC-6987; for percent quench of YFP fluorescence, 500 uM tc6: 500 uM TC-6987
# From the text: as §1, §2, §3, §4, §5
# [8] = High throughput electrophysiology in HEK293T cells, AZD-0328; details: HEK293T cells, held at −60 mV
# Experimental: To confirm the EC50s determined by plate reader as well as develop a better understanding of maximum current flow, the engineered receptors were subjected to high throughput electrophysiology system, as described below. For HEK293T studies, cDNAs encoding ion channels were cloned into pcDNA3.1 using standard recombination techniques. HEK293T cells from Clontech (Lenti-X™ 293T Cell Line) were cultured in DMEM supplemented with 10% FBS and 1% Pen/Strep to 40-50% confluence using standard cell culture protocols, transfected with ion channel plasmids at a concentration of 18 μg per 15 cm dish using Fugene 6, and grown for an additional 24 hours. Cells were then assayed on a electrophysiological system (IonFluxHT and/or Mercury, Fluxion Biosciences) in which dose-response relationships may be assessed through a microfluidics-based platform for establishing whole cell configurations. Ensemble plates were primed with extracellular buffer (140 mM NaCl, 5 mM KCl, 2 mM CaCl2), 1 mM MgCl2, 10 mM HEPES, and 10 mM glucose, pH 7.2 with NaOH, mOsm 310), intracellular buffer (145 mM CsCl, 2 mM CaCl2, 2 mM MgCl2, 10 mM HEPES, and 10 mM EGTA, pH 7.2 with CsOH, mOsm 305), as adapted from Lynagh and Lynch, and test compounds (stocks prepared fresh) diluted in extracellular buffer. Cells were then released from the plate with Accutase, centrifuged, resuspended in extracellular buffer, and loaded into Ensemble plates. Cells were then subjected to a standard protocol for priming, trapping, breaking, and establishing whole cell configuration, with cells held at −60 mV throughout the recording. After recording baseline, progressive doses of test compounds were applied using the IonFlux software to assess dose response relationships. Data were then analyzed off-line using custom Python scripts to convert data to .csv format, re-plot traces, and apply QC measurements to reject unstable recordings (i.e. thresholding based on access resistance and/or standard deviation in baseline, as well as artifact rejection). Peak currents were then calculated and population data were fit using a 4-parameter logistic equation as described by the Hill Equation. Currents were measured on an automated patch clamp system (Fluxion Biosciences) following 1 second addition of drug and the EC50 values calculated are tabulated below in Table 13.
molecule,measurement,setting,value
B1,"percent quench of YFP fluorescence, 50 nM abt",[1],−11.96%
same,"percent quench of YFP fluorescence, 100 nM abt",[1],−10.72%
same,"percent quench of YFP fluorescence, 300 nM abt",[1],11.65%
same,"percent quench of YFP fluorescence, 1 uM abt",[1],−3.06%
same,"percent quench of YFP fluorescence, 10 uM ach",[2],−11.3%
same,"percent quench of YFP fluorescence, 100 uM ach",[2],−27.53%
same,"percent quench of YFP fluorescence, 1 mM ach",[2],2.84%
same,"percent quench of YFP fluorescence, 3 mM ach",[2],14.65%
same,"percent quench of YFP fluorescence, 100 nM apn",[3],14.26%
same,"percent quench of YFP fluorescence, 1 uM apn",[3],45.55%
same,"percent quench of YFP fluorescence, 30 uM apn",[3],64.93%
same,"percent quench of YFP fluorescence, 100 nM azd",[4],−9.32%
same,"percent quench of YFP fluorescence, 300 nM azd",[4],4.94%
same,"percent quench of YFP fluorescence, 30 uM azd",[4],60.61%
same,"percent quench of YFP fluorescence, 1 nM brd",[5]; 1 nM TC-5619,−1.13%
same,"percent quench of YFP fluorescence, 3 nM brd",[5]; 3 nM TC-5619,−3.83%
same,"percent quench of YFP fluorescence, 10 nM brd",[5]; 10 nM TC-5619,−3.78%
same,"percent quench of YFP fluorescence, 100 nM brd",[5]; 100 nM TC-5619,−2.03%
same,"percent quench of YFP fluorescence, 1 uM brd",[5]; 1 uM TC-5619,1.68%
same,"percent quench of YFP fluorescence, 30 nM fac",[6],−23.44%
same,"percent quench of YFP fluorescence, 300 nM fac",[6],2.75%
same,"percent quench of YFP fluorescence, 10 uM fac",[6]; 10 uM RG3487,69.71%
same,"percent quench of YFP fluorescence, 30 uM fac",[6],61.44%
same,"percent quench of YFP fluorescence, 1 uM tc6",[7],−20.99%
same,"percent quench of YFP fluorescence, 10 uM tc6",[7],−27.62%
same,"percent quench of YFP fluorescence, 500 uM tc6",[7],−24.22%
B2,"percent quench of YFP fluorescence, 50 nM abt",[1],−11.09%
same,"percent quench of YFP fluorescence, 100 nM abt",[1],−10.37%
same,"percent quench of YFP fluorescence, 300 nM abt",[1],−4%
same,"percent quench of YFP fluorescence, 1 uM abt",[1],4.05%
same,"percent quench of YFP fluorescence, 10 uM ach",[2],−12.24%
same,"percent quench of YFP fluorescence, 100 uM ach",[2],−26.23%
same,"percent quench of YFP fluorescence, 1 mM ach",[2],−1.16%
same,"percent quench of YFP fluorescence, 3 mM ach",[2],2.97%
same,"percent quench of YFP fluorescence, 100 nM apn",[3],1.23%
same,"percent quench of YFP fluorescence, 1 uM apn",[3],35.77%
same,"percent quench of YFP fluorescence, 30 uM apn",[3],68.29%
same,"percent quench of YFP fluorescence, 100 nM azd",[4],−7.02%
same,"percent quench of YFP fluorescence, 300 nM azd",[4],−0.48%
same,"percent quench of YFP fluorescence, 30 uM azd",[4],70.16%
same,"percent quench of YFP fluorescence, 30 nM fac",[6],−21.36%
same,"percent quench of YFP fluorescence, 300 nM fac",[6],4.17%
same,"percent quench of YFP fluorescence, 30 uM fac",[6],65.94%
same,"percent quench of YFP fluorescence, 1 uM tc6",[7],−21.8%
same,"percent quench of YFP fluorescence, 10 uM tc6",[7],−27.08%
same,"percent quench of YFP fluorescence, 500 uM tc6",[7],−21.56%
B3,EC50 AZD-0328,[8],no activity
B4,EC50 AZD-0328,[8],no activity
